The record followed here is publication PMC10460399 (Nature Communications, 2023).

A word on the stoichiometry N: it is a count of units in the complex or per binding partner.

Values joined by “and” are separate entries in the source; they are usually repeats but may differ in a detail not shown here. Equal entries are not always repeated.

B1: 50-bp dsRNA (dsRNA)
RNA 1: GAGACUUGGGCAAUGUGACUGCUGAUCAGCAGUCACAUUGCCCAAGUCUCUU
RNA 2: B1 RNA 1
B2: DmDcr-2 mutant (D1217N/D1476N, DmDcr-2^DDNN) (enzyme, Drosophila melanogaster, UniProt A1ZAW0 1-1722, looked up)
chain: MEDVEIKPRGYQLRLVDHLTKSNGIVYLPTGSGKTFVAILVLKRFSQDFDKPIESGGKRALFMCNTVELARQQAMAVRRCTNFKVGFYVGEQGVDDWTRGMWSDEIKKNQVLVGTAQVFLDMVTQTYVALSSLSVVIIDECHHGTGHHPFREFMRLFTIANQTKLPRVVGLTGVLIKGNEITNVATKLKELEITYRGNIITVSDTKEMENVMLYATKPTEVMVSFPHQEQVLTVTRLISAEIEKFYVSLDLMNIGVQPIRRSKSLQCLRDPSKKSFVKQLFNDFLYQMKEYGIYAASIAIISLIVEFDIKRRQAETLSVKLMHRTALTLCEKIRHLLVQKLQDMTYDDDDDNVNTEEVIMNFSTPKVQRFLMSLKVSFADKDPKDICCLVFVERRYTCKCIYGLLLNYIQSTPELRNVLTPQFMVGRNNISPDFESVLERKWQKSAIQQFRDGNANLMICSSVLEEGIDVQACNHVFILDPVKTFNMYVQSKGRARTTEAKFVLFTADKEREKTIQQIYQYRKAHNDIAEYLKDRVLEKTEPELYEIKGHFQDDIDPFTNENGAVLLPNNALAILHRYCQTIPTDAFGFVIPWFHVLQEDERDRIFGVSAKGKHVISINMPVNCMLRDTIYSDPMDNVKTAKISAAFKACKVLYSLGELNERFVPKTLKERVASIADVHFEHWNKYGDSVTATVNKADKSKDRTYKTECPLEFYDALPRVGEICYAYEIFLEPQFESCEYTEHMYLNLQTPRNYAILLRNKLPRLAEMPLFSNQGKLHVRVANAPLEVIIQNSEQLELLHQFHGMVFRDILKIWHPFFVLDRRSKENSYLVVPLILGAGEQKCFDWELMTNFRRLPQSHGSNVQQREQQPAPRPEDFEGKIVTQWYANYDKPMLVTKVHRELTPLSYMEKNQQDKTYYEFTMSKYGNRIGDVVHKDKFMIEVRDLTEQLTFYVHNRGKFNAKSKAKMKVILIPELCFNFNFPGDLWLKLIFLPSILNRMYFLLHAEALRKRFNTYLNLHLLPFNGTDYMPRPLEIDYSLKRNVDPLGNVIPTEDIEEPKSLLEPMPTKSIEASVANLEITEFENPWQKYMEPVDLSRNLLSTYPVELDYYYHFSVGNVCEMNEMDFEDKEYWAKNQFHMPTGNIYGNRTPAKTNANVPALMPSKPTVRGKVKPLLILQKTVSKEHITPAEQGEFLAAITASSAADVFDMERLEILGNSFLKLSATLYLASKYSDWNEGTLTEVKSKLVSNRNLLFCLIDADIPKTLNTIQFTPRYTWLPPGISLPHNVLALWRENPEFAKIIGPHNLRDLALGDEESLVKGNCSDINYNRFVEGCRANGQSFYAGADFSSEVNFCVGLVTIPNKVIADTLEALLGVIVKNYGLQHAFKMLEYFKICRADIDKPLTQLLNLELGGKKMRANVNTTEIDGFLINHYYLEKNLGYTFKDRRYLLQALTHPSYPTNRITGSYQELEFIGNAILDFLISAYIFENNTKMNPGALTDLRSALVNNTTLACICVRHRLHFFILAENAKLSEIISKFVNFQESQGHRVTNYVRILLEEADVQPTPLDLDDELDMTELPHANKCISQEAEKGVPPKGEFNMSTNVDVPKALGDVLEALIAAVYLDCRDLQRTWEVIFNLFEPELQEFTRKVPINHIRQLVEHKHAKPVFSSPIVEGETVMVSCQFTCMEKTIKVYGFGSNKDQAKLSAAKHALQQLSKCDA
notes: Dicer-2 (DmDcr-2) of Drosophila melanogaster, full length, with D1217N/D1476N (no dicing activity, helicase activity kept); also called Dicer-2; source: sf9 cells (Bac-to-Bac baculovirus), co-expressed with R2D2, purified (Ni-NTA, Hitrap Q, 2nd Ni-NTA, SEC)
B3: 19-bp dsRNA (siRNA duplex) (dsRNA)
RNA 1: GAGACUUGGGCAAUGUGAAGU
RNA 2: GUCACAUUGCCCAAGUCUCUU
B4: Loqs-PD (Loquacious isoform D), full length (natural protein, Drosophila melanogaster, UniProt Q9VJY9-4 1-359, looked up)
chain: MDQENFHGSSLPQQLQNLHIQPQQASPNPVQTGFAPRRHYNNLVGLGNGNAVSGSPVKGAPLGQRHVKLKKEKISAQVAQLSQPGQLQLSDVGDPALAGGSGLQGGVGLMGVILPSDEALKFVSETDANGLAMKTPVSILQELLSRRGITPGYELVQIEGAIHEPTFRFRVSFKDKDTPFTAMGAGRSKKEAKHAAARALIDKLIGAQLPESPSSSAGPSVTGLTVAGSGGDGNANATGGGDASDKTVGNPIGWLQEMCMQRRWPPPSYETETEVGLPHERLFTIACSILNYREMGKGKSKKIAKRLAAHRMWMRLQETPIDSGKISDSICGELEGEVSIIQDIDRYEQVSKDFEFIKI
notes: Only a small segment of the C-terminus is seen in the maps; also called Loqs isoform D; source: Escherichia coli BL21 (DE3), purified (Ni-NTA, ULP1 cleavage, second Ni-NTA, SEC)

The target of data set [1] is T1, DmDcr-2 DDNN;R2D2;Loqs-PD (Drosophila melanogaster;Drosophila …, UniProt A1ZAW0;Q9VLW8;Q9VJY9-4 1-1722;1-311;1-359, D1217N;D1476N||). Nature of the data set: cryo-EM; ATP, Mg2+; Dimer state; Cryo-EM sample buffer not in material; protein SEC buffer 100 mM NaCl, 20 mM Tris-HCl pH 8.0, 1 mM DTT; oligomers formed with ATP and Mg2+. To be noted: protein: recombinant;recombinant;recombinant; tags: purified by Ni-NTA.

Data set [2] concerns the molecule itself. Nature of the data set: cryo-EM structure; DmDcr-2^DDNN/R2D2/Loqs-PD complex with 50-bp dsRNA 1:1, 25 °C for 2 h, diluted to 1 uM in SEC buffer with 5 mM ATP and 5 mM MgCl2.
The target in data set [3] is T1, DmDcr-2 DDNN;R2D2;Loqs-PD. Nature of the data set: cryo-EM; ATP, Mg2+; Trimer state (EMD-34708); Cryo-EM sample buffer not in material; protein SEC buffer 100 mM NaCl, 20 mM Tris-HCl pH 8.0, 1 mM DTT; oligomers formed with ATP and Mg2+. The settings on record: protein: recombinant;recombinant;recombinant; tags: purified by Ni-NTA.
For data set [4], the target named is B2. Put plainly: cryo-EM structure; DmDcr-2^DDNN/R2D2/Loqs-PD complex with 50-bp dsRNA 1:1, 25 °C for 2 h, diluted to 1 uM in SEC buffer with 5 mM ATP and 5 mM MgCl2. To be noted: both partners purified.
The target of data set [5] is T2, DmDcr-2^DDNN/R2D2 complex (Drosophila melanogaster, UniProt A1ZAW0 1-1722; Q9VLW8 1-311, D1217N | D1476N).
T2 construct: Dicer-2 (DmDcr-2) of Drosophila melanogaster, full length, with D1217N/D1476N; as m1; R2D2 of Drosophila, full length; as m2; Complex formed beforehand, to which Loqs-PD was added; also called DmDcr-2/R2D2; source: sf9 cells (Bac-to-Bac baculovirus), co-expressed, purified (Ni-NTA, Hitrap Q, 2nd Ni-NTA, SEC)
Put plainly: SEC; purified DmDcr-2^DDNN/R2D2 and Loqs-PD mixed at a molar ratio of 1:1.5, on ice for 1 h; Superose 6 10/300 Increase in SEC buffer (100 mM NaCl, 20 mM Tris-HCl pH 8.0, 1 mM DTT). To be noted: both partners purified. For orientation: Size exclusion chromatography separates by hydrodynamic size, large species first.

On to B1, for which the binding result in data set [1] is “binds”.

Take B2: the “stoichiometry N” value in data set [2] is 2 and 3.

B3: in data set [3], the binding result is given as “binds”.

As for B4, the binding result in data set [4] and in data set [5] was “binds” throughout.
